According to IntAct's records for PubMed 11575918:

B1: RING finger protein Z (Lymphocytic choriomeningitis virus (strain Armstrong)), P18541 (parent)
chain: MGQGKSREEKGTNSTNRAEILPDTTYLGPLSCKSCWQKFDSLVRCHDHYLCRHCLNLLLSVSDRCPLCKYPLPTRLKISTAPSSPPPYEE

Variants of: B1
Settings: with if4e_human EIF4E

Variant | effect of a mutation on the interaction
MGQGKSREEKGTNSTNRAEILPDTTYLGPLSCKSCWQKFDSLVRCHDHYLCRHCLNLLLSVSDRAPLAKYPLPTRLKISTAPSSPPPYEE [C65A;C68A] | decreasing interaction
MGQGKSREEKGTNSTNRAEILPDTTYLGPLSGKSFWQKFDSLVRCHDHYLCRHCLNLLLSVSDRCPLCKYPLPTRLKISTAPSSPPPYEE [C32G;C35F] | decreasing interaction
